Changes are numbered by the printed parent chain. In names and notes the source's numbering stands.
T1: Biotin-FcγRIIB (human FcγRIIB, Sino Biological) (human, UniProt P31994 43-217, limits assumed, biotin-labeled)
T1 construct: Used at 1 µg/ml with Streptavidin-APC for flow cytometry and sorting; also called CD32b
T1 sequence (looked up): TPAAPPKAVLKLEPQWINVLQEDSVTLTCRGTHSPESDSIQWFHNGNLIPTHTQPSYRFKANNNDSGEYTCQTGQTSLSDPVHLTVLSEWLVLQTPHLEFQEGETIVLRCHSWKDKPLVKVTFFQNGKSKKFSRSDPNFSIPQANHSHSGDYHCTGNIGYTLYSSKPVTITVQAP

B1: human IgG2 anti-mouse CD40 surface displayed antibody, P271G/P329S (antibody, name in EU numbering)
light chain (with the P2A rest): DTVLTQSPALAVSPGERVTISCRASDSVSTLMHWYQQKPGQQPKLLIYLASHLESGVPARFSGSGSGTDFTLTIDPVEADDTATYYCQQSWNDPWTFGGGTKLELKRTVAAPSVFIFPPSDEQLKSGTASVVCLLNNFYPREAKVQWKVDNALQSGNSQESVTEQDSKDSTYSLSSTLTLSKADYEKHKVYACEVTHQGLSSPVTKSFNRGECGSGATNFSLLKQAGDVEENPG
heavy chain: EVQLVESDGGLVQPGRSLKLPCAASGFTFSDYYMAWVRQAPTKGLEWVASISYDGSSTYYRDSVKGRFTISRDNAKSTLYLQMDSLRSEDTATYYCGRHSSYFDYWGQGVMVTVSSASTKGPSVFPLAPCSRSTSESTAALGCLVKDYFPEPVTVSWNSGALTSGVHTFPAVLQSSGLYSLSSVVTVPSSNFGTQTYTCNVDHKPSNTKVDKTVERKCCVECPPCPAPPVAGPSVFLFPPKPKDTLMISRTPEVTCVVVDVSHEDGEVQFNWYVDGVEVHNAKTKPREEQFNSTFRVVSVLTVVHQDWLNGKEYKCKVSNKGLSAPIEKTISKTKGQPREPQVYTLPPSREEMTKNQVSLTCLVKGFYPSDIAVEWESNGQPENNYKTTPPMLDSDGSFFLYSKLTVDKSRWQQGNVFSCSVMHEALHNHYTQKSLSLSPGKLEPPPSTVSNMATVAVLVVLGAAIVTGAVVAFVMKMRRRNTGGKGGDYALAPGSQTSDLSLPDCKVMVHDPHSLA
notes: m1 with these Fc mutations (Eu numbering); copies: 2 + 2
B2: human IgG2 anti-mouse CD40 surface displayed antibody, S298L (antibody, name in EU numbering)
light chain (with the P2A rest): B1 light chain (with the P2A rest)
heavy chain: B1 heavy chain with G266P, S293L, S324P
notes: m1 with this Fc mutation (Eu numbering); copies: 2 + 2
B3: human IgG2 anti-mouse CD40 surface displayed antibody, P271G/S298G (antibody, name in EU numbering)
light chain (with the P2A rest): B1 light chain (with the P2A rest)
heavy chain: B1 heavy chain with S293G, S324P
notes: as for B1
B4: human IgG2 anti-mouse CD40 surface displayed antibody, P271G/S298N (antibody, name in EU numbering)
light chain (with the P2A rest): B1 light chain (with the P2A rest)
heavy chain: B1 heavy chain with S293N, S324P
notes: as for B1
B5: human IgG2 anti-mouse CD40 surface displayed antibody, P271G/T299W (antibody, name in EU numbering)
light chain (with the P2A rest): B1 light chain (with the P2A rest)
heavy chain: B1 heavy chain with T294W, S324P
notes: as for B1
B6: human IgG2 anti-mouse CD40 surface displayed antibody, P271G/T299S (antibody, name in EU numbering)
light chain (with the P2A rest): B1 light chain (with the P2A rest)
heavy chain: B1 heavy chain with T294S, S324P
notes: as for B1
B7: human IgG2 anti-mouse CD40 surface displayed antibody, S267V/S298L (antibody, name in EU numbering)
light chain (with the P2A rest): B1 light chain (with the P2A rest)
heavy chain: B1 heavy chain with S262V, G266P, S293L, S324P
notes: as for B1
B8: human IgG2 anti-mouse CD40 surface displayed antibody, S267E (antibody, name in EU numbering)
light chain (with the P2A rest): B1 light chain (with the P2A rest)
heavy chain: B1 heavy chain with S262E, G266P, S324P
notes: as for B2
B9: human IgG2 anti-mouse CD40 surface displayed antibody, P271A/S298R (antibody, name in EU numbering)
light chain (with the P2A rest): B1 light chain (with the P2A rest)
heavy chain: B1 heavy chain with G266A, S293R, S324P
notes: as for B1
B10: human IgG2 anti-mouse CD40 surface displayed antibody, P271G/P331C (antibody, name in EU numbering)
light chain (with the P2A rest): B1 light chain (with the P2A rest)
heavy chain: B1 heavy chain with S324P, P326C
notes: as for B1
B11: human IgG2 anti-mouse CD40 surface displayed antibody, P271G/S298K (antibody, name in EU numbering)
light chain (with the P2A rest): B1 light chain (with the P2A rest)
heavy chain: B1 heavy chain with S293K, S324P
notes: as for B1
B12: human IgG2 anti-mouse CD40 surface displayed antibody, P271Q (antibody, name in EU numbering)
light chain (with the P2A rest): B1 light chain (with the P2A rest)
heavy chain: B1 heavy chain with G266Q, S324P
notes: as for B2
B13: human IgG2 anti-mouse CD40 surface displayed antibody, S267R (antibody, name in EU numbering)
light chain (with the P2A rest): B1 light chain (with the P2A rest)
heavy chain: B1 heavy chain with S262R, G266P, S324P
notes: as for B2
B14: human IgG2 anti-mouse CD40 surface displayed antibody, S267E/S298R (antibody, name in EU numbering)
light chain (with the P2A rest): B1 light chain (with the P2A rest)
heavy chain: B1 heavy chain with S262E, G266P, S293R, S324P
notes: as for B1
B15: human IgG2 anti-mouse CD40 surface displayed antibody, P271G/S298L (antibody, name in EU numbering)
light chain (with the P2A rest): B1 light chain (with the P2A rest)
heavy chain: B1 heavy chain with S293L, S324P
notes: as for B1
B16: human IgG2 anti-mouse CD40 surface displayed antibody, P271G/S298D (antibody, name in EU numbering)
light chain (with the P2A rest): B1 light chain (with the P2A rest)
heavy chain: B1 heavy chain with S293D, S324P
notes: as for B1
B17: human IgG2 anti-mouse CD40 surface displayed antibody, P271G/T299M (antibody, name in EU numbering)
light chain (with the P2A rest): B1 light chain (with the P2A rest)
heavy chain: B1 heavy chain with T294M, S324P
notes: as for B1
B18: human IgG2 anti-mouse CD40 surface displayed antibody, P271G/T299A (antibody, name in EU numbering)
light chain (with the P2A rest): B1 light chain (with the P2A rest)
heavy chain: B1 heavy chain with T294A, S324P
notes: as for B1
B19: human IgG2 anti-mouse CD40 surface displayed antibody, P271G/S298E (antibody, name in EU numbering)
light chain (with the P2A rest): B1 light chain (with the P2A rest)
heavy chain: B1 heavy chain with S293E, S324P
notes: as for B1
B20: human IgG2 anti-mouse CD40 surface displayed antibody, P271G/P331T (antibody, name in EU numbering)
light chain (with the P2A rest): B1 light chain (with the P2A rest)
heavy chain: B1 heavy chain with S324P, P326T
notes: as for B1
B21: human IgG2 anti-mouse CD40 surface displayed antibody, P271G/S298R (antibody, name in EU numbering)
light chain (with the P2A rest): B1 light chain (with the P2A rest)
heavy chain: B1 heavy chain with S293R, S324P
notes: as for B1
B22: human IgG2 anti-mouse CD40 surface displayed antibody, H268D (antibody, name in EU numbering)
light chain (with the P2A rest): B1 light chain (with the P2A rest)
heavy chain: B1 heavy chain with H263D, G266P, S324P
notes: as for B2
B23: human IgG2 anti-mouse CD40 surface displayed antibody, S267A (antibody, name in EU numbering)
light chain (with the P2A rest): B1 light chain (with the P2A rest)
heavy chain: B1 heavy chain with S262A, G266P, S324P
notes: as for B2
B24: human IgG2 anti-mouse CD40 surface displayed antibody, S267A/P271G (antibody, name in EU numbering)
light chain (with the P2A rest): B1 light chain (with the P2A rest)
heavy chain: B1 heavy chain with S262A, S324P
notes: as for B1
B25: human IgG2 anti-mouse CD40 surface displayed antibody, H268K (antibody, name in EU numbering)
light chain (with the P2A rest): B1 light chain (with the P2A rest)
heavy chain: B1 heavy chain with H263K, G266P, S324P
notes: as for B2
B26: human IgG2 anti-mouse CD40 surface displayed antibody, S267A/P271C (antibody, name in EU numbering)
light chain (with the P2A rest): B1 light chain (with the P2A rest)
heavy chain: B1 heavy chain with S262A, G266C, S324P
notes: as for B1
B27: human IgG2 anti-mouse CD40 surface displayed antibody, S267E/D270H (antibody, name in EU numbering)
light chain (with the P2A rest): B1 light chain (with the P2A rest)
heavy chain: B1 heavy chain with S262E, D265H, G266P, S324P
notes: as for B1
B28: human IgG2 anti-mouse CD40 surface displayed antibody, H268E (antibody, name in EU numbering)
light chain (with the P2A rest): B1 light chain (with the P2A rest)
heavy chain: B1 heavy chain with H263E, G266P, S324P
notes: as for B2
B29: human IgG2 anti-mouse CD40 surface displayed antibody, S267D (antibody, name in EU numbering)
light chain (with the P2A rest): B1 light chain (with the P2A rest)
heavy chain: B1 heavy chain with S262D, G266P, S324P
notes: as for B2
B30: human IgG2 anti-mouse CD40 surface displayed antibody, P271C (antibody, name in EU numbering)
light chain (with the P2A rest): B1 light chain (with the P2A rest)
heavy chain: B1 heavy chain with G266C, S324P
notes: as for B2

Biological target: T1, Biotin-FcγRIIB (human FcγRIIB, Sino …)
Test: NGS after FACS sort of 3T3-displayed LibraryMix for biotin-FcγRIIB binding

Row | Enrichment factor (percentage after sorting/percentage before sorting) | Increased factor (enrichment factor/wild-type enrichment factor) | Binder
1 | 46.2 | 61.8 | B1
2 | 2.18 | 2.91 | B2
3 | 9.73 | 13 | B3
4 | 18 | 24 | B4
5 | 9.23 | 12.3 | B5
6 | 12 | 16 | B6
7 | 2.09 | 2.8 | B7
8 | 217 | 290 | B8
9 | 2.45 | 3.27 | B9
10 | 140 | 187 | B10
11 | 10.2 | 13.6 | B11
12 | 1.65 | 2.21 | B12
13 | 1.52 | 2.03 | B13
14 | 32.8 | 43.8 | B14
15 | 188 | 252 | B15
16 | 6.78 | 9.06 | B16
17 | 4.74 | 6.33 | B17
18 | 6.28 | 8.39 | B18
19 | 298 | 398 | B19
20 | 32.3 | 43.2 | B20
21 | 16 | 21.4 | B21

Biological target: T1, Biotin-FcγRIIB (human FcγRIIB, Sino …)
Test: NGS after FACS sort of 3T3-displayed Library2 for biotin-FcγRIIB binding

Row | Enrichment factor (percentage after sorting/percentage before sorting) | Increased factor (enrichment factor/wild-type enrichment factor) | Binder
22 | 1.54 | 2.68 | B22
23 | 3.17 | 5.52 | B23
24 | 5.27 | 9.19 | B24
25 | 1.32 | 2.31 | B25
26 | 37.4 | 65.1 | B26
27 | 42.7 | 74.3 | B27
28 | 1.69 | 2.94 | B28
29 | 2.11 | 3.67 | B29
30 | 17.1 | 29.9 | B30

— US20230220042A1 (SHANGHAI JIAO TONG UNIVERSITY SCHOOL OF MEDICINE, published 2023)
